Data from patent US20100136573A1, “DIAGNOSING NEURODEGENERATIVE DISEASES” (priority 2007, published 2010).

Tests used:
[1] = test system: TDP-43 exon 9 skipping activity; assay: CFTR mini-gene splicing assay; assay type: cell-based
Protocol: The CFTR mini-gene splicing assay was conducted as described elsewhere (Pagani et al., J. Biol. Chem., 275(28):21041-21047 (2000) and Ayala et al., FEBS Lett., 580(5):1339-1344 (2006)). In brief, Hela cells were co-transfected with 1 μg of minigene construct and 1 μg of GFP-fusion protein expression vector. […] Then, 2 μg of total RNA was used to synthesize cDNA using the SuperScript III First-Strand Synthesis System (Invitrogen). For the PCR, 2 μL of cDNA was used in a 20 μL of reaction according to the manufacturer's protocol for Taq PCR Core Kit (Qiagen). The amplification conditions consisted of an initial denaturation step at 94° C. for 3 minutes, followed by 30 cycles of 94° C. for 30 seconds, 62° C. for 60 seconds, and 72° C. for 90 seconds.

HEK293 cells = assay: Inclusion formation and distribution of GFP-TDP-43 constructs, confocal microscopy; assay type: cell-based; details: for cells with compact cytoplasmic inclusions: HEK293, 48 hours after transfection; for cellular distribution / inclusion formation: HEK293, confocal fluorescence microscopy
Protocol: HEK293 cells, grown on glass coverslips, were transfected with 0.3 μg of expression vector (GFP, GFP-TDP-43, GFP-TDP-43-caspase-resistant, GFP-TDP-35, GFP-TDP-25, or GFP-TDP-ΔNR1) by using Lipofectamine 2000 (Invitrogen) according to the manufacturer's instructions then subjected to immunofluorescence analysis 48 hours later. To determine if the cytoplasmic inclusion were insoluble, some cells were treated with 0.2% Triton X-100 prior to fixation, in order to remove soluble protein. To determine if the formation of inclusion was aggresome-dependent, some cells were treated with 1 μM nocodazole (Sigma) for 24 hours after 6 hours of transfection. Finally, to examine if inclusions were ubiquitinated, cells were cotransfected with 0.3 μg of a TDP-43 construct and 0.5 μg HA-ubiquitin, then subjected to immunofluorescence analysis 72 hours later.
(§1) The cultured HEK293 and differentiated M17 cells were fixed with 4% paraformaldehyde in phosphate-buffered saline (PBS) at 4° C. for 15 minutes and permeabilized with PBS-0.5% Triton X-100 for 10 minutes. After blocking with 5% BSA for 1 hour at 37° C., the cells were incubated overnight at 4° C. with mouse monoclonal HA antibody (1:1000, Roche Applied Science), rabbit polyclonal activated caspase-3 antibody (1:250, Cell Signaling), rabbit polyclonal anti-pTDP-43 (which detects phosphorylated S409/S410; 1:1000, COSMO BIO CO., LTD), mouse monoclonal Flag antibody (1:1000, Sigma), rabbit polyclonal M2085 (1:1000), or rabbit polyclonal M2079 (1:1000). After washing, cells were incubated with the Alexa 568-conjugated goat anti-mouse IgG secondary antibody (1:1000, Molecular Probes) or anti-rabbit IgG secondary antibody (1:500, Molecular Probes) at 37° C. for 2 hours. Finally, Hoechst 33258 (1 μg/mL, Invitrogen) was used to stain the nuclei. Images were obtained on a Zeiss LSM 510 META confocal microscope.

[2] = test system: differentiated M17 neuroblastoma cells; assay: Toxicity assay (LDH release, activated caspase-3 staining); assay type: cell-based
Protocol: M17 neuroblastoma cells, seeded at 2.5×10^3 cells per well in 24-well plates, were grown in Neurobasal A/B27 medium containing Glutamax (Invitrogen) and 10 μM retinoic acid (Sigma) to induce differentiation. Seven days later, cells were transfected with 0.2 μg of expression vector for 72 hours. The medium was collected, and a LDH assay (Promega) was used to measure LDH levels as an indicator of toxicity. Then, cells were fixed, and immunofluorescent staining was done using an antibody against activated caspase-3 (1:250; Cell signaling) and the nuclear marker, bisbenzimide (Hoechst 33258).
as §1

Flag-TDP-43 = target: T1, Flag-TDP-43 (Homo sapiens, UniProt Q13148); assay: Co-immunoprecipitation with Flag-TDP-43; assay type: binding; details: HeLa cells, probing for GFP
T1 construct: the exon skipping activity in cells overexpressing full-length TDP-43 was examined; expressed in transfected cells; host or cells: HeLa cells
Protocol: (§2) For co-immunoprecipitation studies, HeLa cells were transfected with 1 or 2 μg of each plasmid. Cells were harvested 48 hours later using Co-IP buffer (50 mM Tris-HCl, pH 7.4, 1 M NaCl, 1% Triton X-100, 5 mM EDTA) containing PMSF as well as protease and phosphatase inhibitors. The lysates were sonicated and centrifuged at 16,000 g for 20 minutes. The protein concentration of supernatants was determined by BCA assay (Thermo Scientific). Supernatant containing 500 μg of total protein was combined with Anti-Flag M2 agarose (Sigma) and incubated overnight at 4° C. with gentle shaking. The agarose was pelleted by centrifugation at 2,500 g for 5 minutes and washed with Co-IP buffer 6 times. Captured protein was eluted from the beads using loading buffer and resolved by SDS-PAGE for Western blot analysis.

hnRNPA2 = target: T2, hnRNPA2 (Homo sapiens, UniProt P22626); assay: Co-immunoprecipitation with Flag-tagged hnRNPA2; assay type: binding; details: HeLa cells, probing for GFP
T2 construct: expressed in transfected cells; host or cells: HeLa cells
Protocol: as §2

[3] = target: T3, Recombinant human GST-TDP43 (Homo sapiens, UniProt Q13148); assay: In vitro caspase-3 assay; assay type: biochemical; details: 2 units, 2 and 4 hours, Coomassie staining
T3 construct: Full-length or caspase-3-treated recombinant GST-TDP43 (0.5 μg) was separated by 10% SDS-PAGE
Protocol: Recombinant human GST-TDP43 (2 μg) was incubated with active human recombinant caspase-3 (2 units, CHEMICON International, Inc., Temecula, Calif.) in reaction buffer containing 100 mM NaCl, 50 mM HEPES, 10 mM DTT, 1 mM EDTA, 10% glycerol, 0.1% CHAPS, pH 7.4) at 37° C. for 2 hours or 4 hours, respectively. Cleavage reactions were terminated by addition of 2×SDS loading buffer. Full-length or caspase-3-treated recombinant GST-TDP43 (0.5 μg) was separated by 10% SDS-PAGE and stained with Coomassie blue.

[4] = medium collected 72 hours after transfection

T2 sequence (P22626 1-341 isoform P22626-2, species assumed): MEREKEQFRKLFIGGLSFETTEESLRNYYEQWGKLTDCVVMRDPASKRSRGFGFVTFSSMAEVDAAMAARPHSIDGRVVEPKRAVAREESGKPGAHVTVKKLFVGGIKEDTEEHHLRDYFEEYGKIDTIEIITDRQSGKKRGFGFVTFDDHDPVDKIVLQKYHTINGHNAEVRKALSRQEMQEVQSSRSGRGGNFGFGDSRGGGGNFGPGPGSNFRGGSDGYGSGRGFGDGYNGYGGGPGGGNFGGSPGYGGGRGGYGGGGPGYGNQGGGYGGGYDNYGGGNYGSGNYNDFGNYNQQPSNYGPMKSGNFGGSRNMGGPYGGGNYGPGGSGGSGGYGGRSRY
T3 sequence (Q13148 whole entry): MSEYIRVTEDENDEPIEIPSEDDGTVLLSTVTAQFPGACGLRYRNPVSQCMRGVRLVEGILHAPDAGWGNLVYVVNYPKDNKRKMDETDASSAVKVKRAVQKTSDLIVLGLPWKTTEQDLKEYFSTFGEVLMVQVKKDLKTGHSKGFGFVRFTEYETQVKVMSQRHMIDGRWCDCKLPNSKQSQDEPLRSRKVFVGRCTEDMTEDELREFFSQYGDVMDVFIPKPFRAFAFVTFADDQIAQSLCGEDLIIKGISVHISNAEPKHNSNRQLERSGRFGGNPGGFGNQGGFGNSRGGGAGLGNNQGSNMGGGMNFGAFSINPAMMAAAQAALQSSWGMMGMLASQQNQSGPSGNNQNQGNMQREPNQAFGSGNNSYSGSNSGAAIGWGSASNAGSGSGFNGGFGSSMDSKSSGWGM
T1 sequence (Q13148 whole entry): as above

| Molecule | cells with compact cytoplasmic inclusions (HEK293 cells) | cellular distribution (HEK293 cells) | LDH release compared to cells transfected with full-length or caspase-resistant TDP-43 [2, 4] | inclusion formation (HEK293 cells) | also measured |
| --- | --- | --- | --- | --- | --- |
| GFP-TDP-25: GFP-tagged 25 kDa (aa 220-414) C-terminal TDP-43 fragment (protein, left off: large carriers, GFP-tagged 25 kDa (aa 220-414) C-terminal TDP-43 fragment) VFIPKPFRAFAFVTFADDQIAQSLCGEDLIIKGISVHISNAEPKHNSNRQLERSGRFGGNPGGFGNQGGFGNSRGGGAGLGNNQGSNMGGGMNFGAFSINPAMMAAAQAALQSSWGMMGMLASQQNQSGPSGNNQNQGNMQREPNQAFGSGNNSYSGSNSGAAIGWGSASNAGSGSGFNGGFGSSMDSKSSGWGM | ~75 % of cells | cytoplasmic and nuclear distribution | significantly higher |  | CFTR exon 9 exclusion (endogenous TDP-43 background) ([1]; HeLa cells cotransfected with CFTR minigene, RT-PCR, compared to GFP): did not differ; exon skipping activity in cells overexpressing Flag-TDP-43 ([1]; cotransfected with CFTR mini-gene and Flag-TDP-43): did not reduce; nuclear localization of Flag-TDP-43 (HEK293 cells; HEK293 co-transfected with Flag-TDP-43): not appreciably altered; inclusion-positive cells positive for fragmented nuclei and activated caspase-3 ([2]; quantitative analysis, Hoechst and activated caspase-3 staining): ~50%; binding to Flag-TDP-43 (Flag-TDP-43): only weakly interacted; binding to hnRNPA2 (hnRNPA2): interact with hnRNPA2 |
| GFP-TDP-25S409A/S410A: mutant GFP-TDP-25 incapable of being phosphorylated at S409/S410 (protein, left off: large carriers, mutant GFP-TDP-25 incapable of being phosphorylated at S409/S410) VFIPKPFRAFAFVTFADDQIAQSLCGEDLIIKGISVHISNAEPKHNSNRQLERSGRFGGNPGGFGNQGGFGNSRGGGAGLGNNQGSNMGGGMNFGAFSINPAMMAAAQAALQSSWGMMGMLASQQNQSGPSGNNQNQGNMQREPNQAFGSGNNSYSGSNSGAAIGWGSASNAGSGSGFNGGFGSSMDSKAAGWGM |  |  | significantly higher | formed cytoplasmic inclusions |  |
| caspase-3: active human recombinant caspase-3 (CHEMICON) (protein) SGISLDNSYKMDYPEMGLCIIINNKNFHKSTGMTSRSGTDVDAANLRETFRNLKYEVRNKNDLTREEIVELMRDVSKEDHSKRSSFVCVLLSHGEEGIIFGTNGPVDLKKITNFFRGDRCRSLTGKPKLFIIQACRGTELDCGIETDSGVDDDMACHKIPVEADFLYAYSTAPGYYSWRNSKDGSWFIQSLCAMLKQYADKLEFMHILTRVNRKVATEFESFSFDATFHAKKQIPCIVSMLTKELYFYH |  |  |  |  | cleavage of recombinant GST-tagged TDP-43 [3]: three distinct fragments of approximately 42, 35, and 25 kD |
| GFP-TDP-35: GFP-tagged 35 kDa (aa 90-414) C-terminal TDP-43 fragment (protein, UniProt Q13148 90-414, looked up, fragment, GFP tag, GFP-tagged 35 kDa (aa 90-414) C-terminal TDP-43 fragment) ASSAVKVKRAVQKTSDLIVLGLPWKTTEQDLKEYFSTFGEVLMVQVKKDLKTGHSKGFGFVRFTEYETQVKVMSQRHMIDGRWCDCKLPNSKQSQDEPLRSRKVFVGRCTEDMTEDELREFFSQYGDVMDVFIPKPFRAFAFVTFADDQIAQSLCGEDLIIKGISVHISNAEPKHNSNRQLERSGRFGGNPGGFGNQGGFGNSRGGGAGLGNNQGSNMGGGMNFGAFSINPAMMAAAQAALQSSWGMMGMLASQQNQSGPSGNNQNQGNMQREPNQAFGSGNNSYSGSNSGAAIGWGSASNAGSGSGFNGGFGSSMDSKSSGWGM | ~25 % of cells | cytoplasmic and nuclear distribution |  |  |  |
| GFP-TDP-ΔNR1: GFP-tagged C-terminal fragment (aa 193-414) lacking the N-terminus and the RRMI (protein, UniProt Q13148 193-414, looked up, fragment, GFP tag, GFP-tagged C-terminal fragment (aa 193-414) lacking the N-terminus and the RRMI) VFVGRCTEDMTEDELREFFSQYGDVMDVFIPKPFRAFAFVTFADDQIAQSLCGEDLIIKGISVHISNAEPKHNSNRQLERSGRFGGNPGGFGNQGGFGNSRGGGAGLGNNQGSNMGGGMNFGAFSINPAMMAAAQAALQSSWGMMGMLASQQNQSGPSGNNQNQGNMQREPNQAFGSGNNSYSGSNSGAAIGWGSASNAGSGSGFNGGFGSSMDSKSSGWGM |  | diffuse cytoplasmic and nuclear immunoreactivity |  | no detectable inclusions | LDH levels compared to cells expressing only GFP [2, 4]: no different |
